According to patent publication EP4659811A1 (Université de Strasbourg, dated 2025):

Legend:
[1] = target: VP1 capsid protein on BKV pseudovirions of genotype Ia (BK-D; JF894228) (BK virus genotype Ia (BK-D)); experiment: cell-based or functional assay
[2] = target: VP1 capsid protein on BKV pseudovirions of genotype IVc2 (A-66H; AB369093) (BK virus genotype IVc2 (A-66H)); experiment: cell-based or functional assay
[3] = target: VP1 capsid protein on BKV pseudovirions of genotype II (GBR-12; AB263920) (BK virus genotype II (GBR-12)); experiment: cell-based or functional assay
[4] = target: T1, VP1 pentamer of BKV genotype IV (recombinant) (BK virus genotype IV, UniProt P14996 30-300); experiment: ELISA, coated VP1 pentamer
T1 construct: also called GIV; VP1 BKV subtype IV; not shown: N-terminal His-tag of pESPRIT002; C-terminal biotin acceptor peptide (BAP) of pESPRIT002

[5] = target: T2, VP1 pentamer of BKV genotype II (recombinant) (BK virus genotype II, UniProt P14996 30-300); experiment: ELISA, coated VP1 pentamer
T2 construct: also called GII; VP1 geno II pentamer; not shown: N-terminal His-tag of pESPRIT002; C-terminal biotin acceptor peptide (BAP) of pESPRIT002

| Binder | Neutralization PSV IC50 [1] [µg/mL] | Neutralization PSV IC50 [2] [µg/mL] | Neutralization PSV IC50 [3] [µg/mL] | EC50 [4] [µg/mL] | EC50 [5] [µg/mL] |
| --- | --- | --- | --- | --- | --- |
| antibody B3P3 (antibody, V domains shown) VH: EVQLVESGGGVVQPGRSLRLSCVTSGFTFESYGIHWVRQAPGKGLEWVAVISNDGSIEDYAGSVKGRFTISGDKAKNTVYLQVNSLRPDDTAVYYCAKDAVGITGGSLYYSYGMDVWGQGTTVTVSS VL: DIQMTQSPSPLSAFIGGRVTITCRASQTIKNYLNWYQQKPGEAPKLLIYTASTLQNGVPSRFSGSRSGTDFTLTITSLQPEDFATYYCQQSYSAPYSFGQGTKLEIK | > 50 | > 50 | > 50 |  |  |
| antibody F11P5 (antibody, V domains shown) VH: QVQLVQSGSELKKPGASVKVSCKASAYTFTNSAINWVRQAPGQGLEWMGWINTNTGNPAYAQGFRGRFVFSLDTSVSEAYLQISNLKAEDTATYYCTVPYNFGGDHNSYYFFGVDIWGQGTTVTVSS VL: QSALTQPASVSGSPGQSITISCTGSSSDVGSYNLVSWFQQHPAKAPKVMIYEGTKRPSGVSDRFSGSKSGNTASLTISGLQAEDEADYYCCSYAGSNTFVFGTGTKVSVL | 0.492 | 46.5 | 1.56 |  |  |
| antibody B7P3 (antibody, V domains shown) VH: EVQLVESGGGVVQPGRSLRLSCAASGFTFSNFGMHWVRQPPGKGLEWVAVISYDGSDKFYADSVKGRFTISRDNFKNTLYVQMNSLRAEDTAVYYCAKDRVRTKYYYDHSGPFDYWGRGTLVTVSS VL: SYVLTQPPSVSVAPGQTARIACGGNNIGSKSVHWYQQRPGQAPVLVVYDDDDRPSGIPERFSGSNSGNTATLTISRVEAGDEADYFCQVWMTNSDRPVFGGGTKLTVL | 0.0004 | > 50 | 3.43 |  |  |
| antibody C10P8 (antibody, V domains shown) VH: QVQLQESGPGLVKPSQTLSLTCTVSGGSISSGRYYWSWIRQPAGKGLEWIGRVYFSGSTNYNPSLKNRVTLSVDTSKNQFSLKLSSVIAADTAVYYCARAVRDYGDSYSFDYWGQGTLVTVSS VL: QSALTQPASVSGSPGQSITISCTGSSSDIGGYNYVSWYQVHPGKAPHLKIYDVVNRPSGVSNRFPGSKSGNTASLTISGLLADDEAYYYCCSYSIRGTPVFGGGTKLTVL | > 12.5 | > 12.5 | > 12.5 |  |  |
| antibody G7P3 (antibody, V domains shown) VH: EVQLVESGGGLVQPGGSLRLSCAASGFSFGSYSMNWVRQAPGKGLEWVSHISSGSSSIYYADSVKGRFTISRDSVKNSLYLQMNNLRAEDTAVYYCARGWTGYDAFDIWGQGTMVTVSS VL: DIQMTQSPSSLSASVGDRVTITCRASQVISNYLAWYQEKPGKVPKLLIYAASTLQSGVPSRFSGSGTGTDFTLTIRSLQPEDVATYYCQKYNNAPLTFGGGTKVEIK | 0.0008 | > 50 | 0.0054 |  |  |
| antibody E8P5 (antibody, V domains shown) VH: EVQLVESGGGLVHPGGSLRLSCAASGFRFGTYSMNWVRQAPGKGLEWVSHISSGSSSIYYADSVKGRFTISRDSVKNSLYLQMNNLRAEDTAVYFCARGWTGYDAFDIWGQGTMVTVSS VL: DIQMTQSPSSLSASVGDRVTITCRASQVISNYLAWYQEKPGEVPKLLIYAASTLQSGVPSRFSGSGTGTDFTLTISSLQPEDVATYYCQKYNNAPLTFGGGTKVEIK | 0.0013 | > 50 | 0.004 |  |  |
| antibody B9P6 (antibody, V domains shown) VH: EVQLVESGGGLVQPGGSLRLSCAASGFTFRSYTMDWVRQAPGKGLEWVSCISGSSNHKYYADSVRGRFTISRDNAKNSLFLQMNSLRAEDSAVYYCAREDDILTPLYGMDVWGPGTTVTVSS VL: EIVLTQSPDTLSLSPGARATLSCRASQSVRSNYLAWYQQKPGQAPRLLIYGASSRATAIPDRFSGSGSGTDFTLTITRLEPEDFAVYYCHQYGSSPRTFGQGTKVEIK | 0.0371 | 0.0176 | 0.0002 | 0.12 | 0.035 |
| antibody G11P1 (antibody, V domains shown) VH: EVQLVESGGGLVQPGGSLRLSCAASGFTFRSYSMDWVRQAPGKGLEWVSYISGSSNQKYYTDSVRGRFTISRDNAKNSLFLQMNSLRAEDSAVYYCAREDDILTPLYGMDVWGPGTTVTVSS VL: EIVLTQSPDTLSLSPGARATLSCRASQSVRSNYLAWYQQKPGQAPRLLIYGASSRATAIPDRFSGSGSGTDFTLTITRLEPEDFAVYYCHQYASSPRTFGQGTKVEIK | 0.112 | 0.02 | 0.0008 | 0.035 | 0.055 |
| antibody E11P6 (antibody, V domains shown) VH: EVQLVESGGGLVQPGGSLRLSCAASGFTFRSYSMDWVRQAPGKGLEWVSYISGSSNQKYYTDSVRGRFTISRDNAKNSLFLQMNSLRAEDSAVYYCAREDDILTPLYGMDVWGPGTTVTVSS VL: EIVLTQSPDTLSLSPGARATLSCRASQSVRSNYLAWYQQKPGQAPRLLIYGASSRATAIPDRFSGSGSGTDLTLTITRLEPEDFAVYYCHQYASSPRTFGQGTKVEIK | 0.216 | 0.0452 | 0.0028 | 0.12 | 0.09 |
| antibody E9P7 (antibody, V domains shown) VH: EVQLVESGGGLVQPGGSLRLSCTASGFTFRSYTMDWVRQAPGKGLEWVSCISGSSNHKYYADSVRGRFTISRDNAKNSLLLQMNSLRAEDSAVYYCAREDDILTPLYGMDVWGPGTTVTVSS VL: EIVLTQSPDTLSLSPGARATLSCRASQSVRSNYLAWYQQKPGQAPRLLIYGASSRATAIPDRFSGSGSGTDFTLTITRLEPEDFAVYYCHQYGSSPRTFGQGTKVEIK | 0.277 | 0.0333 | 0.0003 | 0.2 | 0.1 |
| antibody B10P5 (antibody, V domains shown) VH: EVQLVESGGGLVQPGGSLRLSCSASGFTFSTYTMNWVRQAPGKGLDWVSYISSRSTSIYYADSVKGRFTISRDNAKNSLYLHMTSLRAEDTAVYYCVRDRGYYGSNWFDSWGQGTLVTVSS VL: QSALTQPRSVSGSPGQSVTISCTGTSSDVGNYNYVSWYQQHPGKAPRLMISDVTKRPSGVPDRFSGSKSGNTASLTISGLQAEDEGDYYCCAYAGSYTLVFGGGTKLTVL | > 50 | > 50 | > 50 |  |  |
| antibody E10P5 (antibody, V domains shown) VH: QVQLQESGPGLVKPSQTLSLTCSVSGGSISSGNYYWSWIRQPAGKGLEWIGRIYTSGNTNYNPSLKSRVTMSVDTSKNQFSLKLSSVTATDTAVYYCARVRRDGYNAFDYWGQGTLVTVSS VL: SYELTQPPSVSVSPGQTASIDCSGHNLGDKFTCWYQQKPGQSPVLVIYQDSKRPSGIPERFSGSNSGNTATLTISGTQAMDEADYYCQAWDSDTLYVFGTGTTVTVL | 0.0004 | > 50 | 0.0433 |  |  |
| antibody C4P7 (antibody, V domains shown) VH: EVQLLESGGGLVQPGGSLRLSCAASGFTFSSYAMSWVRQAPGKGLEWVSSLTGSGGSTYYRDSVKGRFTIFRDNSKKTLYMQMNSLRAEDTAVYYCAKEGAYSYDFWYFDLWGRGTLVTVSS VL: EIVLTQSPGTLSLSPGERATLSCRASQTVSGNYLAWYQQKPGQSPSLLIYGASSRATGIPDRFTGSGSGTDFTLTISRLEPADFAVYYCQQYGRPLTFGGGTKVEIK | 0.493 | > 3.12 | 0.0609 |  |  |
| antibody C6P8 (antibody, V domains shown) VH: EVQLVESGGGLVQPGGSLKLSCAASGFTFSGSEIHWVRQASGKGLEWIGRVRSRANRHATGYSESVKGRFTISRDDSKNTASLQLNSLKIEDTAVYYCTGVRGVISRYFAMDVWGQGTTVTVSS VL: SYVLTQTPSVSVAPGQTARITCGGNNIGSNSVHWYQQKPGQAPILVVYDDSERPSGIPERFSGSNSGNTATLTISRVEGGDEADYQCQVWDRRGDLLVFGGGTKLTVL | 6.92 | 1.74 | 0.44 | 4 | 3 |
| antibody C10P7 (antibody, V domains shown) VH: QVQLVQSGSEVKKPGTSVKVSCKASGETYVGHSISWVRQAPGAGLEWMGWISLHNGNVKYAQKLQGRVTMTTDTSTITAYMELRNLTSDDTAVYYCARVPMKIYGVIVFGEYYYDQLDVWGQGTTVTVSS VL: QSALTQPPSASGSPGQSVTISCTGTGSDVGGYNYVSWYQQHPGKAPKLMIYEVSKRPSGVPDRFSGSKSGNTASLTVSGLQAEDEADYYCSSYAGSKVVFGGGTKLTVL | 6.56 | > 50 | 11.2 | 18 | 8 |
